Assay results taken from publication doi:10.1101/2023.03.17.533092 (bioRxiv, 2023).

B1: ADAH14 (VHH)
VHH: QVQLQESGGGLVQAGGSLRLSCAASGSYFFHALMGWFRQAPVKEREFVASITAVPGATYYRRCTDSVKGRFTISRDNAKNTVYLQMNSLKPEDTAVYYCALATHSNRHTPITYWGQGTQVTVSS
B2: ADAH15 (VHH)
VHH: QVQLQESGGGLVQAGGSLRLSCAASGTTYLAANMGWFRQAPGKEREFVAAITFFHNPTVYYADSVKGRFTISRDNAKNTVYLQMNSLKPEDTAVYYCAATVLVRDRIHFSHSIGIRYWGQGTQVTVSS

Tests used:
[1] = target: SARS-CoV-2 spike glycoprotein (S) (SARS-CoV-2 (Wuhan), UniProt P0DTC2)
[2] = target: SARS-CoV-2 Wuhan S RBD, biotinylated (SARS-CoV-2 (Wuhan), UniProt P0DTC2, biotin (biotinylated; site not stated))

Binder | binding result [1] | binding result [2]
B1 | binds | binds
B2 | binds | binds
